Among the data in publication PMC10766600 (2024) are koff and Kd values, retold here.

Several values for one entry are separate records, joined by “and”; a condition that tells them apart may be missing. Equal values may be shown once.

Sequences and labels used below:
B1: decoration protein pb10 of bacteriophage T5, full length (natural protein)
chain: MIDYSGLRTIFGEKLPESHIFFATVAAHKYVPSYAFLRRELGLSSAHTNRKVWKKFVEAYGKAIPPAPPAPPLTLSKDLTASMSVEEGAALTLSVTATGGTGPYTYAWTKDGSPIPDASGATYTKPTAAAEDAGSYKVTVTDSKQVSKDSTTCAVTVNPTVPGG
modifications: DNA-free expanded capsid lacking pb10 (T5 dec deletion, stAmN5). Mature pb8 after removal of the scaffolding domain; limits from the UniProt chain feature, matching the 299 aa entity of PDB 6OMC/6OMA. Minor capsid components (portal) not included.
B2: bacteriophage T5 capsid-like particles (T5 CLPs) (complex)
chain: AVNQSSSVEVSSESYETIFSQRIIRDLQKELVVGALFEELPMSSKILTMLVEPDAGKATWVAASTYGTDTTTGEEVKGALKEIHFSTYKLAAKSFITDETEEDAIFSLLPLLRKRLIEAHAVSIEEAFMTGDGSGKPKGLLTLASEDSAKVVTEAKADGSVLVTAKTISKLRRKLGRHGLKLSKLVLIVSMDAYYDLLEDEEWQDVAQVGNDSVKLQGQVGRIYGLPVVVSEYFPAKANSAEFAVIVYKDNFVMPRQRAVTVERERQAGKQRDAYYVTQRVNLQRYFANGVVSGTYAAS

Assay in all cases: SPR
Assay [1] concerns the target B2.
Assay [2] addresses pmC: full-length pb10 fused at its C-terminal end with mCherry (bacteriophage T5 | , UniProt Q6QGD6 1-164).
Assay [3] has as its target pNmC: N-terminal capsid-binding domain pN of pb10 fused at its C-terminal end with mCherry (bacteriophage T5 | , UniProt Q6QGD6 1-73).
The target in assay [4] is pNO: N-terminal capsid-binding domain pN of pb10 fused at its C-terminal end with ovalbumin (bacteriophage T5 | , UniProt Q6QGD6 1-73).
Assay [5] concerns the target pO: full-length pb10 fused at its C-terminal end with ovalbumin (bacteriophage T5 | , UniProt Q6QGD6 1-164).

On to B1, for which, in assay [1], the koff is 0.00019 s⁻¹ and 0.0003 s⁻¹.
Consider B2, for which the Kd in assay [2] is 1.4 pM; in assay [3] it was 0.9 pM; in assay [4] it was 1.2 pM; in assay [5] it was 2.3 pM. Also, the koff in assay [2] was 0.0002 s⁻¹; in assay [3], 0.00011 s⁻¹; in assay [4], 0.00023 s⁻¹; in assay [5], 0.00035 s⁻¹.

One may read the koff as a measure of how fast the partners let go of each other. Usually Kd stands for the equilibrium constant for the complex coming apart.
